Assay results as given in the supplement of paper PMC11780869.

System: Bacillus subtilis
Experiment: cleaved RNA product abundance (RNA/gDNA barcode ratio) relative to median wild-type variant (ratio to wild type); higher = more accumulation of the downstream cleavage product
Method in brief: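 Oligos with a 9% error rate were used to build barcoded, mutagenized RNase Y cleavage-site windows within truncated aprE or tetM reporter mRNAs, which were integrated into the B. subtilis chromosome. Cultures were grown in LB at 37°C between OD600 0.0003 and 0.3. Cleaved RNA was gel-selected, reverse transcribed and barcode-sequenced, as were genomic DNA barcodes, and UMIs were collapsed. Cleaved product abundance is the scaled RNA:gDNA barcode ratio, with the median construct carrying the unmutated site as reference.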

[1] = experiment (reporter, strain, medium): exp 4a: truncated aprE reporter, strain BJT201 with 2% xylose (RNase J1 expressed), cleavage site: cggR-gapA (positions -7 to +36 mutated)
[2] = experiment (reporter, strain, medium): exp 2b: truncated aprE reporter, strain BJT200, cleavage site: cggR-gapA (positions -7 to +36 mutated)
[3] = experiment (reporter, strain, medium): exp 8a: truncated aprE reporter, strain BJT201 with 2% xylose (RNase J1 expressed), cleavage site: glnRA (positions -5 to +31 mutated)

Row | Sequence | cleaved RNA product abundance [1] | cleaved RNA product abundance [2] | cleaved RNA product abundance [3]
1 | ACAGACGAAGGAGCCGCAAAGAAGTTATTAAGGGGTGAATACTCCCTCAATATAAATATCTCTCACTTATTTAAA | 0.256 | – | –
2 | ACAGACGAAGGAGCCGCAAAAAAGTTATTAAGGGATGAATAATCCCTCAGTATAAATATCTCTCACTTATTTAAA | 0.42 | 0.266 | –
3 | ACAGACGAAGGAGCCGCAAAGAAGTTATTATGGGATGAATAATTCCTCAATATAAATATCTCTCACTTATTTAAA | 0.246 | 0.149 | –
4 | ACAGACGAAGGAGCCGCAAAGAAGTTATTAAGGTATGAATATTCCCTCAATATAAATATCTCTCACTTATTTAAA | 0.0859 | – | –
5 | ACAGACGAAGGAGCCGCAAAAAATTTATTAAGGGATGAATAATCCCTCAATATAAATATCTCTCACTTATTTAAA | 0.66 | 1.19 | –
6 | CGACATGTCCCGCTTCTTTCATTAATCCGTTACCAACTGTTTTGCTATATACAATTACCTTTTAAGAGGAGGAAT | – | – | 0.181
7 | ACAGACGAAGGAGCCGCAAAGAAGTTATTAAAGGATGAATAATCCCTCAATATAAATAACTCTCACTTATTTAAA | 0.229 | 0.157 | –
8 | ACAGACGAAGGAGCCGCAAAGAGGTTATTAAGGGATGAATAATCCGTCAATATAAATATCTCTCACTTATTTAAA | 0.296 | – | –
9 | ACAGACGAAGGAGCCGCAAAGAAGTTATTAAGGGCTGAATAATTCCTCAATATAAATATCTCTCACTTATTTAAA | – | 0.0668 | –
10 | CGACATGTCCCGCTTCTTTCATTAATCTGTTAGCAACTGTTTTGCTATATACAGTTACCTTTTAAGAGGAGGAAT | – | – | 0.249
11 | ACAGACGAAGGAGCCGCAAATAAGTTATTAAGGGATGAATAATCCCTCAATTTAAATATCTCTCACTTATTTAAA | 0.136 | – | –
12 | ACAGACGAAGGAGCCGCAAATAAGTTATTAAGGGATGAATAATCCCTCATTATAAATATCTCTCACTTATTTAAA | 0.356 | – | –
13 | CGACATGTCCCGCTTCTTTCATTAATCCGTTAGCAACTTTTTTGCTATATACATTTTCCTTTTAAGAGGAGGAAT | – | – | 0.343
14 | ACAGACGAAGGAGCCGCAAAGAAGTTATAAAGGGACGAATAATCCCTCAATATAAATATCTCTCACTTATTTAAA | 0.326 | – | –
15 | CGACATGTCCCGCTTCTTTCATTAATCCGTTAGCAACTGTTTTGCTATATACAGTTACCTTTTAAGAGGAGGAAT | – | – | 0.464
16 | ACAGACGAAGGAGCCGCAAAGAAGTTATTAAGGCATGAATAATCCCTCAATATAAATAACTCTCACTTATTTAAA | 0.111 | 0.0904 | –
17 | CGACATGTCCCGCTTCTTTCATTACTCAGTTAGCAACTGTTTTGCTATATACATTTACCTTTTAAGAGGAGGAAT | – | – | 1.1
18 | ACAGACGAAGGAGCCGCAAAGAAGTTATTCAGGTATAAATAATCCCTCAATATAAATATCTCTCACTTATTTAAA | 0.118 | – | –
19 | CGACATGTCCCGCTTCTTTCATTAACCCGTTAGCAAGTGTTTTGCTATATACATTTACCTTTTAAGAGGAGGAAT | – | – | 0.522
20 | ACAGACGAAGGAGCCGCAAAGAAGTTAATAAGGGATGAATAATCCCTCAATATAAATCTCTCTCACTTATTTAAA | 0.218 | – | –
21 | CGACATGTCCCGCTTCTTTCATTAATCCGTTAGCTACTGTTATGCTATATACATTTACCTTTTAAGAGGAGGAAT | – | – | 0.786
22 | ACAGACGAAGGAGCCGCAAAGAAGTTATTTAGGGATTAATAATCCCTCAATATAAATATCTCTCACTTATTTAAA | 1.08 | 0.951 | –
23 | ACAGACGAAGGAGCCGCAAAGAAGTTATTAAGGGATAACTAATCCCTCAATATAAATATCTCTCACTTATTTAAA | 0.57 | – | –
24 | CGACATGTCCCGCTTCTTTCATTAATCCGTTAGTAACTGTTTTACTATATACATTTACCTTTTAAGAGGAGGAAT | – | – | 1.04
25 | ACAGACGAAGGAGCCGCAAAGAAGTTATAAAGGGATGAATAATCCCTCAATTTAAATATCTCTCACTTATTTAAA | 0.152 | 0.146 | –
26 | CGACATGTCCCGCTTCTTTCATTAATCCGTTACCAACAGTTTTGCTATATACATTTACCTTTTAAGAGGAGGAAT | – | – | 0.215
27 | CGACATGTCCCGCTTCTTTCATTAATCCGTTATCAAATGTTTTGCTATATACATTTACCTTTTAAGAGGAGGAAT | – | – | 0.283
28 | CGACATGTCCCGCTTCTTTCATTACTCCGTTACCAACTGTTTTGCTATATACATTTACCTTTTAAGAGGAGGAAT | – | – | 0.176
